Assay in all cases: ELISA
(In general: An ELISA detects its analyte on a solid surface through an enzyme-linked reagent.)

Test [1] has as its target T1, DENV-2 EDIII wild-type Fc-fusion antigen (dengue virus serotype 2 (DENV-2), …).
T1 chain: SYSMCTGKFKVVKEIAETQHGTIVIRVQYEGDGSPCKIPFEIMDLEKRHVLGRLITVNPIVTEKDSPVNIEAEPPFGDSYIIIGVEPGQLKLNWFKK

The target of test [2] is R2N_1G11.
Test [3] has as its target R3N_2D3.
Test [4] has as its target soluble E80 protein of DENV-1 (dengue virus serotype 1 (DENV-1)).
The target of test [5] is soluble DENV-2 envelope protein (D2E80) (dengue virus serotype 2 (DENV-2), …).
The target in test [6] is soluble E80 protein of DENV-3 (dengue virus serotype 3 (DENV-3)).

B1: 2H12 mouse antibody (antibody, V domains shown)
VH: DVQLVEPGAELVQPGASVKMSCKASGYTFSSYWINWEKQRPGKGLEWIGNIYPGSGTVNYDDKFKSKATLTIDTSSNTAYMQLSSLTSEDSAVYYCTRGGSHAMDYWGQGTSVTVSS
VL: DIVMTQSQKFMSTSVGDRVSITCKASQNVRTSVAWYQQKPGQSPKALIYLASNRHTGVPDRFTGSGSGTDFTLTISNVQSEDLADYFCLQHWTYPYTFGGGTKLEIK
As usually defined, the Kd is the concentration at which binding is half-saturated. The molecule B1 returned a Kd in test [1] of 0.39 nM.

B2: soluble E80 protein of DENV-4 (domain or fragment)
chain: MRCVGVGNRDFVEGVSGGAWVDLVLEHGGCVTTMAQGKPTLDFELIKTTAKEVALLRTYCIEASISNITTATRCPTQGEPYLKEEQDQQYICRRDVVDRGWGNGCGLFGKGGVVTCAKFSCSGKITGNLVQIENLEYTVVVTVHNGDTHAVGNDIPNHGVTATITPRSPSVEVKLPDYGELTLDCEPRSGIDFNEMILMKMKKKTWLVHKQWFLDLPLPWAAGADTSEVHWNYKERMVTFKVPHAKRQDVTVLGSQEGAMHSALTGATEVDSGDGNHMFAGHLKCKVRMEKLRIKGMSYTMCSGKFSIDKEMAETQHGTTVVKVKYEGAGAPCKVPIEIRDVNKEKVVGRIISSTPFAEYTNSVTNIELEPPFGDSYIVIGVGDSALTLHWFRKG
With B2, the Kd in test [2] was greater than 67 nM; in test [3], 0.32 nM.

B3: 3H5 mouse antibody (antibody, V domains shown)
VH: QVQLQQSGAEVARPGASVKLSCKASGYTFTSYWLQWVKQRPGQGLEWIGAIWPGDDDTRYAQKFQGKATMTADKSSSTAYIQLSNLASEDSAVYYCARKGGFAMDYWGQGTSVTVSS
VL: NIVMTQSPTSLAVSLGQRATISCRASESVDSFGKSFMHFYQQKPGQPPKLLIHLASNLESGVPARFTGRGSRTDFTLTIDPVEADDAATYYCQQNNEVPFTFGSGTKLEVK
B3 returned a Kd in test [1] of 1.06 nM.

B4: 2C8 mouse antibody (antibody, V domains shown)
VH: EVKLVESGGGLVQPGGSLSLSCAASGFTFTDYYMTWVRQPPGKALEWLALIRNKASGYTTEYSASVKGRFTISRDNSQSILYLQMNALRAEDSATYYCTRAKWDGHYFDYWGQGTTLTVSS
VL: DIQMTQSPASLSVSVGETVTITCRATKNIYNNLAWYQQKQGRSPQLLVYAATNLADGVPSRFSGSGSGTQFSLRINSLQSEDFGNYYCQHFWHTPWTFGGGTKLEIK
On to B4, for which the Kd in test [1] is 0.22 nM.

B5: 513 engineered and humanized antibody (antibody, V domains shown)
VH: QVQLVQSGAEVKKPGASVKVSCKAGFNIKDVYMSWVRQAPEQGLEWMGRIDPENGDTKYDPKLQGRVTMTADTSTNTAYMELRSLRSDDTAVYYCARGWEGFAYWGQGTLVTVSS
VL: DIVMTQSPASLAVSLGQRATISCRASENVDKYGNSFMHWYQQKPGQPPKLLIYRASELQWGVPDRFSGSGSGTDFTLTISSLQAEDVAVYYCQRSNEVPWTFGQGTKLEIK
In the case of B5, the Kd in test [1] came out at 0.066 nM; in test [4], 0.054 nM; in test [5], 0.087 nM; in test [6], 0.46 nM.

The values above are taken from publication PMC11320570 (2024).
